Source: the DeepSol protein solubility set

Assay: soluble on expression in E. coli; label from the status in PepcDB or PDB records

Sequence	soluble on expression in E. coli
MSLGYDHPEILLNFKKDADIWDMMLNTNYMKTCREVVFEYLGVKNGDTVLEVGCGSRSPVYFASKVAPNGAYTGVDISKKLIRVAEGRLKRSGVECVNLKSMDFSETITKYKHDYVLCIHTLSYAHSMKLFLKKMMESLRKGGKLLIMEEFFTENINTNAELFEFYNHLNKYFKNYVSRTEILKEIEMLGYDFKYELLGNNCIVVERIEGHHHHHH	not soluble
MSLGYGIRLLVWGEFACFTRPEMKVERVSYDVMTPSAARGILESIHWKPSIVWKIDKIHVLNEIRFDNVRRNEVGSKIPTGNVRKAMKGEPTLLCQYASEDRQQRATLLLRNVAYVIVAHFEMTSKAGPQDSPEKHYAIFSRRARQGQCFQQPYFGCREFPAKFRLIEEDEPTPHSLHKGDKDLGWMLLDIDHEDGMNPRFFRATMKDGLIEVPPMERGLTVLEGHHHHHH	soluble
MSLHEFQTDSKNKHKVDVHIGIYAPFSSHSAFIGRNILAAMEMGSERLQSSDIHYSFYTLDQLPKNKNAGLVLQKFIDTHHINVLVTGGKETGLIAAPIAKKNNLIHFSLTNNTEVADGRNNFIVWSPAYDQAKVLVNELKRQQVHHLGIITANQPSSTALTHSVIKQLQSDSHIDVAASEYFEPGNKDFSRLTNRIKRKNADMYLVMASPEDIKLIQEQMEADKQHVPITSIVERATPEVVKVFEGQWYVDSHEMQPDFINEFKQNYLNYPVTEAGYAFDLFQLLNKSIVMAIRTQGSPTTSQEVVHQLHDIANGTGVMGTMVLDSKGSLFTKSEVKTVKNGEIHTVEGHHHHHH	soluble
MSLHGVPFGTVPPMGTIGLIAAMPDEIRPFLRLASPAARLHGGRFPIWRLRVGNDDIVLVESGMGIDRATAATDALVAAASPVAILSFGFGGAALPGLKVGDLAVGMTSWFAGTEGIVLRRGIDRNLAEKLAEELNRICNGVTRGEIITSARILKKGDLAHSLPNGISSPILDMETAAVAEAAHRRGIPIVALRAISDDAEEELSFSLDEFTDDDMAIRPRKVLATIARKEGHHHHHH	soluble
MSLHITTKRLLIREFEFKDWQAVYEYTSDSNVMKYIPEGVFTEEDAKAFVNKNKGDNAEKFPVILRDEDCLIGHIVFYKYFGEHTYEIGWVFNPNYQNKGYASEAAQAILEYGFKEMNLHRIIATCQPENIPSYRVMKKIGMRREGFFKKCIPKGNEWWDEYYYAILEEEWNEGHHHHHH	soluble
MSLHPHLNANLEGGVLTLAINRPEAKNALYGELYLWIAKALDEADQNKDVRVVVLRGAEHDFTAGNDMKDFMGFVQNPNAGPAGQVPPFVLLKSAARLSKPLIIAVKGVAIGIGVTILLQADLVFADNTALFQIPFVSLGLSPEGGASQLLVKQAGYHKAAELLFTAKKFNAETALQAGLVNEIVEDAYATAQATAQHLTALPLASLKQTKALMKHDLDQIIECIDHEAEIFMQRVQSPEMLEAVQAFMQKRQPDFSQEGHHHHHH	soluble
MSLIDLKQYEFWFLVGSQYLYGLETLKKVEQQASKIVDSLNDDPIFPSKIVLKPVLKSSSEITEIFEKANADPKCAGVIVWMHTFSPSKMWIRGLSINKKPLLHLHTQYNREIPWDTIDMDYMNLNQSAHGDREHGFIHARMRLPRKVVVGHWEEKEVREKIAKWMRVACAIQDGRMGQIVRFGDNMREVASTEGDKVEAQIKLGWSINTWGVGELAERVKAVPEREVEELLKEYREKYIMPEDEYSLKAIREQAKIEIALREFLKEKNAVGFTTTFEDLHDLPQLPGLAVQRLMEEGYGFGAEGDWKAAGLVRAIKVMGTSLPGGTSFMEDYTYHLTPGNELVLGAHMLEVCPTIAKEKPRIEVHPLSIGGKADPARLVFDGQEGPAVNASIVDMGNRFRLVVNKVLSVPIERKMPKLPTARVLWKPLPDFKRATTAWILAGGSHHTAFSTAIDVEYLIDWAEALEIEYVVIDENLDLEDFKKELRWNELYWGLLKREGHHHHHH	soluble
MSLIDRYILAIESSCDETSVAILKNEDQLLSNIIASQVESHKRFGGVVPEVASRHHVEVITLCIQDALQEAGITAGDLSAVAVTYGPGLVGALLVGMAAAKAFAWANHLPLIPVNHMAGHLMAAQSIADLQYPLLALLVSGGHTELVYVAAPGDYRIVGETRDDAVGEAYDKVGRVMGLTYPAGKEIDQLAHQGQDIYDFPRAMIKEDNLEFSFSGLKSAFINLHHNARQKGEQLRLEDLCASFQAAVLDILMVKTKKALAAYPVKTLVIAGGVAANQGLRERLKEDIKDINVVIPPLRLCGDNAGMIAYAAAVEYEKGHFAELDLNAKPSLAFEGLEEGHHHHHH	soluble
MSLIIRKLFEFENAHIVRFCSSKRCKSSIHGHSYKVEVLLESKYLDNAGMVYDFGLLKTYIRQIIDSFDHAITLFKYDDAKYLEEMKKYSSRWICLPVNVSAENFCRVFFILIDALLKQTKMVNGEQGVTLQSIIVHETRTGYAQGFREDAYSELMPKISLQDIEFSNGIKAEWNDIDFYNKLKNEEIFINPKEEGHHHHHH	soluble
MSLIKVLIVDDHALVRMGIRRLLEDMSDVDVVADAESGEQALAYVKTHSPDVVLLDMKMPGIDGWEVTRRLKKTNPNIKVIAVTAICSDPLPTRVLQLGAMGYLTKESGAEEMAAAIRKVAKGEKYLSAEIAQKMAINSLQESQDSPFDLLSEREMQVMLMITSGMNVQDIADRLFLSSKTINGYRYRMFEKLGIKNDVELTYLAMKHRIIEHPNDLSQDDEGHHHHHH	soluble
MSLILCIDVGNSHIYGGVFDGDEIKLRFRHTSKVSTSDELGIFLKSVLRENNCSPETIRKIAICSVVPQVDYSLRSACVKYFSIDPFLLQAGVKTGLNIKYRNPVEVGADRIANAIAATHSFPNQNIIVIDFGTATTFCAISHKKAYLGGAILPGLRLSADALSKNTAKLPSVEIIKTESVVGRSTIESIQSGVYYGVLGACKELIQRIHHEAFNGDQILILATGGFASLFDKQGLYDHLVPDLVLQGIRLAAMMNTAEGHHHHHH	soluble
MSLINKHVISEKIKKAIVEANIKINPEVEEIIERYEGPFSDIIKENYRVSKEEKLPLCQDTGIVEFFVFIGHEVKLEEPIEETLNRAVGEVYSEYPFRYSVVSDPLFERINTGTNTPAIVHIFQVKGKSLEIRFLVRGGGSENLTVLRMMTPTSDVEKVKEFVIEHIKEHGAKACPPLHVGIGIGGTADKALLLSKLALTKSFKERNKDPKYAGLEKELEKELNFLGIGFQGLGKGITVYSVHIEHFPTHIATLPVAVSVDCYLCRRGKVTFEDEGGSHHHHHH	soluble
MSLIPKFREFDRERHRTDYQKGMSYAEQQDFDMGFTIWFDHIEDLDLIEKDGTINRIVMMSTGLKDKNVKEIYESDIVRNLYGELYVVEWLDGSFVLTEFYNGGYDHYIIDSSTEYEVLGNIYENPELLEDDNHASNEGHHHHHH	soluble
MSLIRANAGDWKKYTFELTPDKTDENARLAIYLEEKGRIQVDMVTLMNGADRQFCGLPLRNDIGQAMVDQGLRFLRYGGTMVNAPEYRFKKMIGDRAERPPYKGHWYTYSTNGFGIEDFLHFCEKAGFMPAYAVNVEESAQDMADMIEYLNGSVDTKWGKKRAENGHPEPYGLKYLEIGNEEVIWGDIEADYQHYIDRFNDIYEAVHAKDPEVQFIHSAWWRPESPNMEKVFKALDGKAAYWDYHPWTDDLGSHVNIDRELTDMKAKFLKWNPKTSMRCAIFEENGNLHNVQRAIVHATVQNVVRRHGDFILTTCAANALQPYLQNDNGWDQGQIFFTSGQVWGMPTFYAQQMSSAHHHPLRLWSETVGELDMTATTNEARDEVILHVVNTSSEVRETQVSLSGFIPKGNMEIYTLSGELNDENLPDTPTWILPKATWKQAPGSDFTYSFPGYSYTIVVLKEGHHHHHH	not soluble
MSLIRIGHGFDVHAFGEDRPLIIGGVEVPYHTGFIAHSDGDVALHALTDAILGAAALGDIGKLFPDTDMQYKNADSRGLLREAFRQVQEKGYKIGNVDITIIAQAPKMRPHIDAMRAKIAEDLQCDIEQVNVKATTTEKLGFTGRQEGIACEAVALLIRQEGGSHHHHHH	soluble
MSLISEVVVTTRKNNRDNKAPIGVYFKDKKVIMHLFSGSHTYENLLTEDYFSVNVVPPIEIAKAVLDDEDDYLYYNDIPYLKSSYYAIFYKVIERKFVDREDKFGKNRLMILEGEEIKRIYLNNIPKPYNRADGLLVEIAVIYSRLANKNIKINEDDKKEMINDIRKYFSIIKKVGGREHKQLAEIMLRNLNLLEGHHHHHH	soluble
MSLITLTTDFGLKGPYVGEMKVAMLRINPNAKIVDVTHSVTRHSILEGSFVMEQVVKYSPKGTVHVGVIDPGVGTERRAIVIEGDQYLVVPDNGLATLPLKHIKVKSVYEIIPDKIRKFTGWEISSTFHGRDIFGPAGALIEKGIHPEEFGREIPVDSIVKLNVEPRKEGDVWILKVIYIDDFGNVILNLENYEKPRTVELLDFNLRLPYLETYGLVEKGEMLALPGSHDYLEIAVNMGSAAERLNVKVGDELRVRLLEGGSHHHHHH	soluble
MSLITTRTARQCGQADYGWLQARYTFSFGHYFDPKLLGYASLRVLNQEVLAPGAAFQPRTYPKVDILNVILDGEAEYRDSEGNHVQASAGEALLLSTQPGVSYSEHNLSKDKPLTRMQLWLDACPQRENPLIQKLALNMGKQQLIASPEGAMGSLQLRQQVWLHHIVLDKGESANFQLHGPRAYLQSIHGKFHALTHHEEKEGHHHHHH	not soluble
MSLIVKVSPKGSMDQLSQLEVDRLKKSAQSALYQLYRNCSLAVLAAGLKTDNSKALFEQYSDFDIHVLQRERGVKLELINPPEQAFVDGQIITGIQEHLFSVLRDILYISDKYDTLKHINLTNASHITNVVFDILRNARAIAPMKDPNVVVCWGGHSINAIEYQYTREVGYQLGLRELDICTGCGPGAMEGPMKGAAIGHSKQRIKNARYIGLTEPSIIAAEPPNQIVNELVILPDIEKRLEAFVRLGHGIIIFPGGAGTAEELLYILGILLNKENQETPFPLVLTGPSESADYFIKIDEFIAATLGPEAQQKYQIIIDNPAEVARVMKQGMEQVKNHRRTTGDAYQYQWGLKIEPEFQLPFIPTHDVMANLNLHFQSNKAELAANLRKAFSGIVAGNVKSETIKQIEQLGPFHIKGDPHLMELMDNLLGAFVAQHRMKLPGSAYVPCYQIVKEGHHHHHH	soluble
MSLIYTGRPMLGTERIRGLTIKIFLPLMELLGRVMGVGREEVRHSFIKVNNELVRSRGGRYTPDELLILVPHCLQSSRCEIRLTYDMNHCKRCGKCPIRDLLALRDRYGVSLAIATGGTIARRIVVQTRPKLIIAVACERDLASGIQDTHPIPVYGVLNERPNGPCLDTLVPMQRLEAALRHFLRDVPVSAGGAPDESRRGRDAAAAFGKAQGPECRVTQGSSQRRGSDGEGHHHHHH	not soluble
MSLKAPYTIGWANIYSVPTWMKQTEGTITAEVEELKKAGLVRDLMITDAQGNAQTQIQHIQSMIDANVDAIVVIAGSSNALDRVISDACDKGIAVVNFDSLVNTDKVTAKINTDSNEWGATAAKWMVSQLGGKGKIIIMNGPAGISVSDDRRKGAQPVLDANPGLQVITETNTEYNVAPAQEAMTSLLFANPEIDGVLSLGGALSAGSVLAFERQGRDQVPTTGENARQFLELWKEKGLKGWATMQPNWLGALSVYTAVQALEGKDVPAFVKVPLPVIDDSTIGSYLARADKFPADGYIYSDYDKALFDKLLATKEGHHHHHH	soluble
MSLKDRFDRFIDYFTEDEDSSLPYEKRDEPVFTSVNSSQEPALPMNQPSQSAGTKENNITRLHARQQELANQSQRATDKVIIDVRYPRKYEDATEIVDLLAGNESILIDFQYMTEVQARRCLDYLDGACHVLAGNLKKVASTMYLLTPVNVIVNVEDIRLPDEDQQGEFGFDMKRNRVRLEHHHHHH	not soluble
